Measured values from paper PMC4882459 (The Journal of Biological Chemistry, 2016).

Molecular target: T1, C1q (human, UniProt P02745 23-245; P02746 28-253; P02747 29-245)
T1 construct: also called human C1q; purified C1q; source: bought: Calbiochem (purified); also endogenous, human serum; copies: + +
Assay: ELISA; C1q binding assay: ES-62, PCh-BSA or CWPS coated to give equivalent CRP binding; CRP 0.4 ug/ml added, then purified C1q at 0, 0.2, 2.0 and 5.0 ug/ml, 1 h at room temperature; detected with anti-C1q
Details: both partners purified

T1 sequence (P02745 23-245, chain 1 of 3): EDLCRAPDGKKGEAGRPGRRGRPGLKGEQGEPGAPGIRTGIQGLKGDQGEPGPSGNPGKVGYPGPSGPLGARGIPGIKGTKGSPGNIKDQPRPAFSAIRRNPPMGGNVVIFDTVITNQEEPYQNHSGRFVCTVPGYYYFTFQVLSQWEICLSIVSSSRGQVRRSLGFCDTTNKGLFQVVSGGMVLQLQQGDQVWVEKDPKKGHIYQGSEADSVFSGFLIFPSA
T1 sequence (P02746 28-253, chain 2 of 3): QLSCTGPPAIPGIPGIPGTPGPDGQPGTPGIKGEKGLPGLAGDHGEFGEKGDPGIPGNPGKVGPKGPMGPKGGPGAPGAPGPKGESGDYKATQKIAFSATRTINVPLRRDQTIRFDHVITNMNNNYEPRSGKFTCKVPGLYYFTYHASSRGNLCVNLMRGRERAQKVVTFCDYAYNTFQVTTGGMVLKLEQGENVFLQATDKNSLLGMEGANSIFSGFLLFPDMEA
T1 sequence (P02747 29-245, chain 3 of 3): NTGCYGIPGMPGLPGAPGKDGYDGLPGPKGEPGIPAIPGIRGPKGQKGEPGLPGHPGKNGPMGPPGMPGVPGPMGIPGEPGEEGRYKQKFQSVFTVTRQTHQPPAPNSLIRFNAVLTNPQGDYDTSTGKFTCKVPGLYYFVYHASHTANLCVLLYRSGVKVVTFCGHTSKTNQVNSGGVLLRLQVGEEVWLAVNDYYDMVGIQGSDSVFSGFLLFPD

B1: C-reactive protein (native, human) (natural protein)
chain: QTDMSRKAFVFPKESDTSYVSLKAPLTKPLKAFTVCLHFYTELSSTRGYSIFSYATKRQDNEILIFWSKDIGYSFTVGGSEILFEVPEVTVAPVHICTSWESASGIVEFWVDGKPRVRKSLKKGYTVGAEASIILGQEQDSFGGNFEGSQSLVGDIGNVNMWDFVLSPDEINTIYLGGPFSPNVLNWRALKYEVQGEVFTKPQLWP
notes: C-reactive protein, human, native pentamer of subunits of ~25 kD; Used as purified protein, as purified protein added to diluted serum, and as the endogenous protein of normal human serum; also called CRP; native CRP; source: also endogenous, normal human serum
Does B1 bind?
Result: binds
